Read-outs that look alike come from different tables or passages of the source.

Here are results for one molecule from patent US12534540B2, “CYP1A1-targeted monoclonal antibody with reactivity across vertebrate taxa” (Clemson University Research Foundation, priority 2023, dated 2026).

Data set [1] has as its system zebrafish CYP1A peptide used for immunizations.
Description: Primary hybridoma supernatants were then screened by ELISA against unconjugated peptide for a minimal signal of three-fold optical density readings above wells probed with an irrelevant antibody (mAb 3F9 against major vault protein), then cloned by limiting dilution for further testing.
Data set [2] has as its system induced CYP1A1 across vertebrate taxa. It counts as binding. The procedure: Screening mAbs against cell line lysates: […] This medium also supports the growth of frog XLK-WG cells (ATCC, Manassas, VA, USA). Other cells and tissues used for testing and screening are outlined in Table 2. Arochlor 1254-induced and non-induced rat liver S9 fractions were thawed immediately upon receipt from the supplier and prepared for SDS-PAGE-immunoblotting by boiling for 7 min in reducing sample buffer (Thermo Fisher J61337.AD) containing 50 μM PMSF. Commercially sourced HEK cell lysates over-expressing recombinant human CYP1A1 (Origene, Rockville, MD, USA) were prepared similarly. […]-1, and HEPA1C1C7 cells were grown to near confluence in 6-well plates ([…], Corning). Plates seeded with ZFL cells and PLHC-1 cells were sealed with parafilm and kept in sealed containers to avoid external CO2. Cells were treated for 48 h with 10 μM PCB-126 (CAS 57465-28-8, Ultra Scientific) dissolved in DMSO or 0.01% DMSO as a carrier control. XLK-WG cells were grown to near confluence in sealed T-75 flasks, then treated for 12 h with 50 nM of the AHR ligand 6-Formylindolo [3,2-b] carbazole (FICZ) (CAS 172922-91-7, Tocris Biosciences, Bristol, UK) in DMSO or 0.01% DMSO, and again for an additional 12 h with the same. […] Overlying supernatants were removed and transferred to clean tubes and the protein content quantified. […]

Data set [3] deals with core vertebrate CYP1A sequence IRDITSLI (SEQ ID NO:35) (Homo sapiens, UniProt P04798). Kind of data set: ELISA against conserved core CYP1A peptide. The format is binding. To be noted: FIG. 1 panel B. (In general: ELISA stands for enzyme-linked immunosorbent assay.)
Protocol: Using additional screening approaches, ELISAs were carried out to determine if either of the three mAbs would recognize the core vertebrate CYP1A sequence [sequence] (SEQ ID NO:35)). […] Based on the general rule of thumb that confluent supernatants contain approximately 30 μg/mL of specific antibody, a total of 60 μg of the peptide in 100 μL PBS as the highest concentration was serially diluted and 50 μL of each dilution were mixed with 50 μL confluent supernatants to yield 100 μL of total mixture for screening ELISA plates coated with the original zebrafish peptide. This mixture of hybridoma supernatant and peptide dilutions was allowed to incubate overnight at 4° C. The next day these mixtures of 100 μL total sample were mixed by gentle agitation and added to zebrafish CYP1A1 peptide-pre-coated ELISA plates and incubated for 2 h at RT. After extensive washings with PBST, the plates were incubated with goat anti-mouse IgG conjugated with alkaline phosphatase for 2 h, washed extensively, and developed and quantified at 405 nm and the data recorded.
For data set [4], the system named is CYP1A. Kind of data set: Tissue immunohistochemistry, Gulf killifish liver. As to conditions: crude oil-exposed adult gulf killifish vs genetically resistant population; FIG. 3 panels E and F. The procedure:
(§1) Grossly dissected archived tissues (fixed and stored at 4° C. in 70% ethanol) were processed and embedded in ParaPlast Extra. Newly embedded tissues were then sectioned and affixed to charged slides for immunohistochemistry. Mouse liver tissues used for this study were from previous studies wherein mice were exposed to 1 mg/kg PCB-126 prior to tissue fixation. Archived rainbow trout livers (and microsomes stored at −80° C. from beta-naphthoflavone ([…])-treated animals from a previous study (Rice et al. 1998 Mar. environ. Res. 46:87-91) were used for immunohistochemistry and immunoblotting. Archived liver tissue from Gulf killifish collected from sites affected by the Deepwater Horizon spill (DHOS) were analyzed for CYP1A alongside livers from a lab-held colony of CYP1A-recalcitrant Gulf killifish, which is used as a molecular control (naturally acquired CYP1A knockdown) (Oziolor et al. 2016 Aquat. Toxicol. 175:222-231). Finally, previously analyzed embryonic chicken livers exposed to airborne volatiles from DHOS oil were included for additional species comparison.
(§2) Zebrafish (strain AB) exposed to PCB-126 (Ulra Scientific) were also used for this study. Zebrafish were housed at the former Clemson Institute of Environmental Toxicology, Pendleton SC and maintained under Clemson University IACUC approved methods. […]

For data set [5], the system named is CYP1A. The experiment in a line: Tissue immunohistochemistry, rainbow trout liver. To be noted: rainbow trout treated with 3-NF; FIG. 3 panels G and H. The procedure:
as §1, §2

Data set [6] concerns the target T1, CYP1A (Mus musculus, UniProt P00184).
T1 sequence (P00184 1-524): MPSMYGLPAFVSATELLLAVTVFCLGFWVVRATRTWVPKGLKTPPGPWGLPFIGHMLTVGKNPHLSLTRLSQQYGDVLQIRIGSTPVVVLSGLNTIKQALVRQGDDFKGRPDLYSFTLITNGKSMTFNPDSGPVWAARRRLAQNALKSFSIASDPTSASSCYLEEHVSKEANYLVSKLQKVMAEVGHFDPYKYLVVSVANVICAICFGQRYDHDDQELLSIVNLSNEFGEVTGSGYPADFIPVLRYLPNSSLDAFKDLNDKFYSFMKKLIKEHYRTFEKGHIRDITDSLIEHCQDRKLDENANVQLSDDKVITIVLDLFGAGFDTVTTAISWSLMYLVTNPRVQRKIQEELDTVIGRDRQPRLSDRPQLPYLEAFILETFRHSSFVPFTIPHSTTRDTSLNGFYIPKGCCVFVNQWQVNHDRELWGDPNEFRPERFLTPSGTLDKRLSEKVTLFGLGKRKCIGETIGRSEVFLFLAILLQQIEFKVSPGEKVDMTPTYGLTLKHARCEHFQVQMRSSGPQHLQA
The procedure:
as §1
(§3) Zebrafish (strain AB) exposed to PCB-126 (Ulra Scientific) were also used for this study. Zebrafish were housed at the former Clemson Institute of Environmental Toxicology, Pendleton SC and maintained under Clemson University IACUC approved methods. Two juvenile male and two juvenile female zebrafish (40 dpf) were exposed for 48 h to either 10 μM PCB-126 or 0.10% DMSO in 1 L glass bottles containing maintenance water from the recirculating system and supplied with gentle aeration. Following exposure, the 4 fish per treatment were euthanized on ice with buffered Tricaine®, their abdominal cavities opened, and placed in 10% aqueous buffered zinc formalin (Z-Fix, Anatech, Ltd., Battle Creek, MI, USA) for 2 days, and the fixative replaced with 70% ethanol and stored at 4° C. Prior to processing, zebrafish were decalcified in 0.35 M EDTA, pH 7.8 at room temperature (RT) for 6 days, then processed for microtomy as above. Fish and chicken tissue IHC was performed using a horse-anti-mouse IgG VectaLabs ABC-Elite kit (PK-6102), while mouse tissue IHC was performed using the mouse-on-mouse (M.O.M.) anti-mouse IgG VectaLabs ABC-Ultra kit (BMK-2202)
(§4) Whole zebrafish tissues were sectioned at 7-9 μm and mouse, trout, killifish, and chicken tissues were sectioned at 4-5 μm on a Microm 325 rotary microtome. […] Additional screening assays included isotype controls.

The test system of data set [7] is CYP1A. The procedure: as §1, §3, §4

Chain of zebrafish CYP1A peptide used for immunizations (as listed by the source): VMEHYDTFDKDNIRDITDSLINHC

B1: mAb CRC4: zebrafish CYP1A-targeted mouse monoclonal antibody; VH SEQ ID NO:17, VL SEQ ID NO:20, CDRs SEQ ID NOs:28-33 (antibody, V domains shown)
VH: QVTLKESGPGILQPSQTLSLTCSFSGFSLSTSGMGVNWIRKPSGKGLEWLAHIFWDDDKRYNPSLKSRLTISKDTSRNQVFLMITSVDTADTATYYCASLAMDYWGQGTSVTVSS
VL: DIVMTQGASSVTVTPGESVSISCRSSKSLLHSNGRTFLYWFLQRPGQSPQLLIYRMSNLASGVPDRVSGSGSGTAFTLRISRVEAEDVGVYYCMQHLEYPFTFGGGTRLELK
B1: in data set [1], the “ELISA reactivity against zebrafish CYP1A peptide (selection criteria)” value was “meeting selection criteria”. Further, the “recognition of treatment-induced CYP1A protein by immunoblotting” value in data set [2] is given as “recognized by mAb CRC4 across all vertebrate taxa examined”. In addition, in data set [3], the “recognition of core vertebrate CYP1A peptide by ELISA” value was “recognized this peptide sequence”. Further, in the data set on CYP1A [4], the “CYP1A detection in liver by IHC” value is on record as “easily detected in adult gulf killifish but not in individuals from a genetically resistant population”. For the same molecule, the “CYP1A staining intensity in liver by IHC” value in the data set on CYP1A [5] is “most intense staining”. Moreover, the “CYP1A detection in liver by IHC” value with CYP1A [6] is “easily detected in PCB-126-exposed mouse livers but not unexposed controls”. Further, in the data set on CYP1A [7], the “CYP1A detection in liver by IHC” value is “easily detected”, the “CYP1A staining intensity in liver by IHC” value was “most intense staining”, the “staining after antigen retrieval” value was “more favorable staining” and the “staining intensity of chicken tissues compared with mAb C10-7” value was “same intensity as seen using mAb C10-7”.
